The source of these data is the supplement of paper PMC10567573.

A short description of the series: protein stability index of a GFP-peptide fusion (GPS, HEK-293T) (PSI 1-6); higher = more stable. The following applies: c terminus: a fixed tail appended.

± gives the standard deviation.
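Note: 24-mer peptide tiles fused after GFP, lentivirally expressed, FACS-sorted into six equal bins by GFP/DsRed ratio, decoded by Illumina sequencing, PSI is the read-weighted mean bin number.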

For the sequence YIRCQKEVGKSFERHKLKRQDADA [SMG5], the protein stability index was 3.46 ± 0.53 (treatment: DMSO) and 3.43 ± 0.23 (treatment: MLN4924 1 uM, 8 h).

Take KGNTTLQQLDLRWNNVGLLGGRAL [LRRC45]: the protein stability index reads like this: (treatment: DMSO) 2.68 ± 0.034; (treatment: MLN4924 1 uM, 8 h) 2.73 ± 0.26.

For the sequence TVPKNDADDESETPEELEEEIPVV [GLT8D2], the protein stability index by setting is: (treatment: DMSO) 5.63 ± 0.12; (treatment: MLN4924 1 uM, 8 h) 5.53 ± 0.26.

For ERSRDVVDDVSVSLRLWDTFGDHH [RHOBTB2], the protein stability index by setting is: (treatment: DMSO) 3.7 ± 0.14; (treatment: MLN4924 1 uM, 8 h) 3.63 ± 0.22.

For GEKPHRCPQCGKCFARKSQLTGHQ [ZNF449], the protein stability index was found to be 4.66 ± 0.23 (treatment: DMSO) and 4.85 ± 0.31 (treatment: MLN4924 1 uM, 8 h).

In the case of VWVGVIRYLTFFHNYNILIATLRV [MCOLN1], the protein stability index reads like this: (treatment: DMSO) 3.13 ± 0.1; (treatment: MLN4924 1 uM, 8 h) 2.86 ± 0.37.

Turning to YEELRNSERAEVQRLEEQERRHRE [RSPH3], the protein stability index reads like this: (treatment: DMSO) 5.4 ± 0.25; (treatment: MLN4924 1 uM, 8 h) 5.38 ± 0.28.

Consider AALRIANCKLFRLQLQQGLFRIRV [GAN], for which the protein stability index reads like this: (treatment: DMSO) 2.8 ± 0.57; (treatment: MLN4924 1 uM, 8 h) 2.58 ± 0.51.

Regarding SSATTYFWYREALDISDSISESGG [SLC6A17], the protein stability index by setting is: (treatment: DMSO) 2.62 ± 0.46; (treatment: MLN4924 1 uM, 8 h) 2.73 ± 0.34.

For LNQGSVFQEYDTDCEVFRQRFRQF [ZNF449], the protein stability index runs as follows: (treatment: DMSO) 2.98 ± 0.27; (treatment: MLN4924 1 uM, 8 h) 3.19 ± 0.12.

With PNGKHSTNFVSRYDPRFNSWIQLP [KLHL14], the protein stability index was 2.32 ± 0.097 (treatment: DMSO) and 2.58 ± 0.24 (treatment: MLN4924 1 uM, 8 h).

CHLCVNYIEMQTDPANCDYVIVSG [YJU2B]: the protein stability index came to 2.71 ± 0.26 (treatment: DMSO) and 2.57 ± 0.33 (treatment: MLN4924 1 uM, 8 h).

On to ETKLDLISKGEEPRAGKEESGVSV [SLC29A1], for which the protein stability index by setting is: (treatment: DMSO) 5.44 ± 0.15; (treatment: MLN4924 1 uM, 8 h) 5.39 ± 0.52.

For PLESAFDHEDFTGSSSLGFTSSPS [FCHO1], the protein stability index reads like this: (treatment: DMSO) 4.81 ± 0.35; (treatment: MLN4924 1 uM, 8 h) 5.07 ± 0.15.

For the sequence RKRIRTYLKSCRRMKKNGMEMTRP [NOL4L], the protein stability index was 3.28 ± 0.21 (treatment: DMSO) and 3.32 ± 0.22 (treatment: MLN4924 1 uM, 8 h).

In turn, PSLHVVKVLLDCGADPDSRDFDNN [FEM1A] had a protein stability index (treatment: DMSO) of 3.46 ± 0.14 and a protein stability index (treatment: MLN4924 1 uM, 8 h) of 3.82 ± 0.21.

Take ALSEILRIGKRPDLLTFVQNLCKG [NEUROD6]: the protein stability index by setting is: (treatment: DMSO) 2.49 ± 0.46; (treatment: MLN4924 1 uM, 8 h) 2.29 ± 0.21.

Sequence ENEKLHQRVEQLTRDLAGLRQFFK [CEBPD] had a protein stability index (treatment: DMSO) of 3.01 ± 1.3 and a protein stability index (treatment: MLN4924 1 uM, 8 h) of 2.55 ± 0.28.

VEEGNVQTLLPAACLLQLAEIQEA [KLHL20] had a protein stability index (treatment: DMSO) of 3.58 ± 0.52 and a protein stability index (treatment: MLN4924 1 uM, 8 h) of 3.84 ± 0.43.

As to LGETPENSNLEEPLNPKPHKKKSP [ZNF449], the protein stability index (treatment: DMSO) turned out to be 5.41 ± 0.38 and the protein stability index (treatment: MLN4924 1 uM, 8 h) worked out at 5.47 ± 0.12.

Regarding KLAEAYLNLGPALSAALASSQKQH [C8orf76], the protein stability index was found to be 2.68 ± 0.69 (treatment: DMSO) and 2.82 ± 0.97 (treatment: MLN4924 1 uM, 8 h).

Turning to PGPPSAPPPPPKEGHQEGLVELPA [SCNN1D], the protein stability index is, setting by setting: (treatment: DMSO) 5.46 ± 0.23; (treatment: MLN4924 1 uM, 8 h) 5.47 ± 0.17.

As for GSFHGPGHISLRRENSSDSPKELK [DLC1], the protein stability index is, setting by setting: (treatment: DMSO) 4.99 ± 0.39; (treatment: MLN4924 1 uM, 8 h) 5.09 ± 0.41.

As to DVAVTVDRDRFMDEFFEQVEEIRG [STX1A], the protein stability index by setting is: (treatment: DMSO) 4.35 ± 0.39; (treatment: MLN4924 1 uM, 8 h) 4.49 ± 0.25.

NPTQNVRTILLSVISLLNEPNTFS [CDC34]: the protein stability index by setting is: (treatment: DMSO) 2.86 ± 0.54; (treatment: MLN4924 1 uM, 8 h) 2.95 ± 0.61.

Turning to QEARERWNFDFVTETPLEGDFAWE [CDKN1A], the protein stability index by setting is: (treatment: DMSO) 4.39 ± 0.29; (treatment: MLN4924 1 uM, 8 h) 4.29 ± 0.24.

Regarding GMLCSFRIPGAWSCAWSLNIQANN [DCAF4], the protein stability index is 2.69 ± 0.8 (treatment: DMSO) and 2 ± 0.29 (treatment: MLN4924 1 uM, 8 h).

For the sequence LSKFDLPEEPSAEDSINNSLVQLQ [MYBL2], the protein stability index by setting is: (treatment: DMSO) 4.88 ± 0.13; (treatment: MLN4924 1 uM, 8 h) 4.85 ± 0.16.

As for PEAVDEDRSTEPDRLQVFHKRAIM [ATE1], the protein stability index by setting is: (treatment: DMSO) 4.8 ± 0.23; (treatment: MLN4924 1 uM, 8 h) 4.91 ± 0.12.

For the sequence VLTIALPVPVIVSNFNYFYHRETE [KCNA1], the protein stability index stood at 3.02 ± 0.47 (treatment: DMSO) and 3.06 ± 0.41 (treatment: MLN4924 1 uM, 8 h).

Consider LQPPHESRPQPIYYGFSESAESQG [ADAMTSL2], for which the protein stability index is 4.18 ± 0.39 (treatment: DMSO) and 4.22 ± 0.56 (treatment: MLN4924 1 uM, 8 h).

ALLFIPRRAPFDLFENKKKKNNIK [HSP90AB1] returned a protein stability index (treatment: DMSO) of 2.19 ± 0.27.

PSDFCGLTHLVKLDLSKNKLQQLP [LRRC59] came in with a protein stability index (treatment: DMSO) of 2.17 ± 0.31 and a protein stability index (treatment: MLN4924 1 uM, 8 h) of 2.16 ± 0.17.

EEEERLRREEEERRRIEEERLRLE [ACBD3]: the protein stability index (treatment: DMSO) came out at 5.61 ± 0.25 and the protein stability index (treatment: MLN4924 1 uM, 8 h) was found to be 5.52 ± 0.12.

For SGRKNSTSKDLVTLGASSLREERG [C6orf223], the protein stability index (treatment: DMSO) came out at 4.77 ± 0.099 and the protein stability index (treatment: MLN4924 1 uM, 8 h) turned out to be 4.87 ± 0.26.

For the sequence HHSLQAHFRPRFHPLPTVIIVNLL [TMEM192], the protein stability index was 2.68 ± 0.28 (treatment: DMSO) and 2.35 ± 0.48 (treatment: MLN4924 1 uM, 8 h).
